PMC4856535 (Nature structural & molecular biology, 2016)

Tests used:
[1] = molecular target: TAMRA-labeled caspase-1^CARD-SUMO with C-terminal sortase motif (His-MBP removed by TEV protease in the assay) (human) (UniProt P29466); assay: fluorescence polarisation
SEC = molecular target: the molecule itself; assay: SEC
[2] = molecular target: T1, His-GFP-caspase-1^CARD (wild type) (human, UniProt P29466 1-91); assay: fluorescence polarisation
T1 sequence (looked up): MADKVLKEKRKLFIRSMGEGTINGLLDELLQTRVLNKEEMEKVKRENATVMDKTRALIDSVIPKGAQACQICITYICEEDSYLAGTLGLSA

Molecule	Ki [2] [nM]	other results
His-tagged human inhibitor of CARD (INCA) (from UniProt Q5XLA6 1-110) (natural protein)	–	Ki [1]: 9.4 nM
His-MBP-ICEBERG (natural protein, human) ADQLLRKKRRIFIHSVGAGTINALLDCLLEDEVISQEDMNKVRDENDTVMDKARVLIDLVTGKGPKSCCKFIKHLCEEDPQLASKMGLH	–	binding result (SEC): binds
His-tagged human inhibitor of CARD (INCA) (natural protein, UniProt Q5XLA6 1-110, looked up) MADKVLKEKRKQFIRSVGEGTINGLLGELLETRVLSQEEIEIVKCENATVMDKARALLDSVIRKGAPACQICITYICEEDSHLAGTLGLSAGPTSGNHLTTQDSQIVLPS	4.3 ± 1.4	–
INCA R55E (natural protein, human, UniProt Q5XLA6 1-110, looked up) MADKVLKEKRKQFIRSVGEGTINGLLGELLETRVLSQEEIEIVKCENATVMDKAEALLDSVIRKGAPACQICITYICEEDSHLAGTLGLSAGPTSGNHLTTQDSQIVLPS	~1700	–
